Literature values, collected in PMC11349558.

Molecular target: histone H4 (UniProt P62805)

For “fibrinogen D-domain (from UniProt P02671)”, the Kd is given as 2 nM.
